Source: patent US20250134019A1, “TRIKETONE DIOXYGENASE VARIANTS FOR HERBICIDE TOLERANCE” (Monsanto Technology LLC, priority 2022, published 2025)

Legend:
[1] = Specific activity of purified TDO proteins, second hydroxylation of mesotrione; assay type: biochemical; settings: FIG. 8
Source text: Activity was expressed as nmol/min/mg protein and was the mean of three separate assays on the same enzyme sample (technical reps).
To test the hypothesis, the four amino acids of sorghum TDO corresponding to amino acid positions 230, 301, 332, and 335 in rice TDO were replaced with those of rice TDO. The corn, rice, sorghum, and the modified sorghum TDO genes were cloned into a pET28 vector for E. coli expression with His6 tag in the N-terminus. Subsequently, the proteins were expressed and purified by affinity chromatography. BL21-CodonPlus (DE3)-RIPL E. coli cells (Stratagene) were used for expression. Cells transformed with expression vector were grown in autoinduction media (AIM) supplemented with 100 μg mL-1 kanamycin and 34 μg mL-1 chloramphenicol.
TDO proteins used in this study were expressed in AIM cells using an auto-induction system as described by Studier (2014). Briefly, the recombinant cultures were grown at 37° C. for 3 hours and then 20° C. for one or two days. Cells were harvested by centrifugation and frozen at −80° C. The pellet was resuspended in lysis buffer (Bper and Yper [Pierce] with ratio 3 to 1, 25 mM Tris-HCl, 300 mM NaCl, 10 mM imidazole, pH 8.0). 150 mM ferric ammonium citrate (1000X) was added to the lysate to a final concentration of 150 µM and incubated on ice for 20 minutes. The lysate was centrifuged to clarify the supernatant. Clear supernatant was loaded onto a 5 mL Ni column connected to AKTA Express (GE Healthcare). […] Protein concentrations were determined spectrophotometrically based on their calculated molar absorption extinction coefficients at 280 nm.
TDO activity was measured by the second hydroxylation of mesotrione. For routine activity measurements of TDO and determining the kinetic properties of the second hydroxylation, the continuous change in A330, which is specific to the second hydroxylation and subsequent non-enzymatic water removal (i.e. the conversion of hydroxy-mesotrione to oxy-mesotrione), was monitored. […] The reaction proceeded until the maximum A330 was obtained (usually 20-120 minutes depending upon the concentration of mesotrione) and the linear portion of the curve was determined by visual inspection. […]
For the activity calculation, aliquots of the reaction were removed at various time points during the reaction and heated at 95° C. to halt the reaction. The reaction mixtures were analyzed by HPLC and mass spectrophotometry. By product conversation followed by peak integration on HPLC, a linear plot was obtained and the extinction co-efficient delta between the substrate (mesotrione) and the second product (oxy-mesotrione) was obtained according to the equation ΔA330=(εp-εs)*bΔp where ΔA330 is the change of absorbance at 330 nm and b is the light path.

[2] = tested on: transgenic soybean plants; assay: Mesotrione injury of R0 transgenic soybean plants expressing TDO homologs; assay type: in vivo; settings: promoter Constitutive 1, 3' UTR A; 210 g a.i./ha mesotrione at V3-V4, rated 7-14 days after treatment; mean of all tested events
Experimental: Plant expression vectors comprising the selected TDO homologs under the control of one of two constitutive promoters were transformed into soybean via an Agrobacterium tumefaciens-mediated method. Following Agrobacterium transformation, R0 transgenic soybean plants containing a single copy of the transgene were identified through molecular characterization and segregation analysis. Transgenic and wild-type (control) plants were grown in 6-inch pots filled with BM7 soilless mix in a growth chamber under the conditions of 28° C./23° C. (light/dark) and a 16 hr light/8 hr dark photoperiod. Plants were fertilized with 15-5-15 liquid fertilizer at the V3-V4 growth stage and treated with 210 g a.i./ha mesotrione (1X=105 g a.i./ha; Callisto®, Syngenta in 1% crop oil). Plants were visually rated 7-14 days after treatment on a scale of 0% to 100%, with 0%=no injury and 100%=plant death, relative to the wild-type controls. The results summarized in Table 2 represent the mean of all tested events (10-15) for each construct.

[3] = tested on: transgenic soybean plants; assay: TDO protein level (ELISA) and mesotrione injury of transgenic soybean at normal vs elevated temperature; assay type: in vivo; settings: elevated temperature (99° F.)
Experimental: Os.TDO-transgenic soybean plants and wild-type control plants were grown at 80° F. until V2 growth stage, then half of the plants were transferred to 99° F. After 3 days, leaf samples were harvested to determine TDO protein levels, and plants were then treated with 2X and 8X rates of mesotrione. Crop injury ratings were taken 11 days after mesotrione treatment. […] The black bars represent TDO protein levels in parts per million per dry weight; the gray bars represent plant injury rate (%) to 2X and 8X mesotrione treatments.
Soybeans were planted and grown under typical greenhouse conditions (85° F. day, 75° F. night) until approximately V3 growth stage. At that time, half of the plants were moved to a higher temperature growth chamber (99° F. day, 82° F. night; 60% relative humidity) for three days prior to leaf sample collection and a spray application of 4X rate mesotrione. Mesotrione was applied to both greenhouse and growth chamber plants. Visual injury ratings were taken at 7 days after treatment. […] The gray bars represent mesotrione injury ratings at 85° F. and the black bars represent mesotrione injury ratings at 99° F. for these transgenic plants.
The TDO variants were grown at 85° F. (gray) vs 99° F. (black). […]
The enzyme activity was measured at room temperature for the hydroxylation of mesotrione, and was defined as Kcat/Km, M-1 sec-1 (specificity constant). […]

transgenic cotton plants = assay: Mesotrione treatment of cotton plants expressing TDO variants, crop injury; assay type: in vivo; settings: for Crop Injury (%), 210 g/ha (2X) Mesotrione / Crop Injury (%), 840 g/ha (8X) Mesotrione: R2 cotton sprayed at V3
Experimental: Cotton is a crop of interest that is often exposed to high temperature growing conditions and thus, selected TDO variants were tested in cotton. Three TDO variants, D08, TDO_6, and TDO_8 were transformed into cotton (along with the Os.TDO control) using similar expression elements in single-cassette vectors or as part of multi-cassette vectors. R2 transgenic cotton plants were then screened for tolerance to mesotrione. Sixteen plants from two events each per construct were sprayed with two rates (2X and 8X) of mesotrione at V3 stage under normal (80° F.) and hot (100° F.) growing conditions. In addition, the effect of heat treatment on TDO accumulation in cotton plants were measured by ELISA. Cotton plants were planted and grown under normal greenhouse conditions (80° F. day/70° F. night) until V3 growth stage. Half of the plants were then moved to a higher temperature growth chamber (100° F. day/82° F. night) for the heat treatment, whereas the remaining half of the plants stayed in the same greenhouse (80° F. day/70° F. night). At day 3 after the plants were placed under different temperature conditions, leaf samples were collected for TDO protein measurement. The plants in 100° F. growth chamber and in 80° F. greenhouse were both sprayed with 2X mesotrione (210 g a.i./ha). Leaf samples were collected again 7 days after mesotrione treatment (DAT: Days After Treatment) for protein assay. Table 5 compares protein levels of the TDO variants in transgenic cotton plants grown under the two tested conditions. The protein levels for the TDO variants were measured at three time points for plants: 1) just before entering the high temperature treatment, 2) three days following placement into control (normal growth temperature) or high temperature (100° F.), and 3) 7 days after a 2X mesotrione spray.

[4] = tested on: transgenic soybean plants; assay: Field testing of variant D08 for mesotrione tolerance; assay type: in vivo; settings: field setting, no control of temperature
Experimental: Since this testing was conducted in the field, there was no control on the temperature ranges the plants were exposed to.

[5] = specific activity of second hydroxylation

B1: Sb.TDO: TDO homolog from Sorghum bicolor, SEQ ID NO:6 (protein)
chain: MAGESWKVPTPVKDLAALVEEPPSQFVQREEDRPGSLMLAADMPDPLPIVDLDKMSTADEATKLRSALQTWGLFLATNHGIDVSLMEDLMKASREFFNQPLQERQKYSNLREGTRFQLEGYGSDPVIAQDHILDWSDRLQLKVEPEDERNLAQWPKHPESFRDLLHEYATKTKTVMVKILRAMAKTLELDEEDFIDQIGGRPQAYARFNYYPPCPRPELVLGIKAHSDGPLLTVLLVDREVGGLQIQRENKWFNVPSIPHALVINLGDSLEIMSNGIFKSPVHRVVTNAEKERISLAMLYAVQRDNVLEPAPGLLDEKRPAKYRRITEAHFLEGVKEHFSKGMRMIETLKI
modifications: Sorghum bicolor
[1]; purified His6-tagged protein from E. coli
  specific activity of the second hydroxylation: not significantly different from the blank
[2]
  % Injury: 35%

B2: SwM: Sb.TDO variant SwM, SEQ ID NO:48, substitutions P230T-A301S-L332R-V335I (protein)
chain: MAGESWKVPTPVKDLAALVEEPPSQFVQREEDRPGSLMLAADMPDPLPIVDLDKMSTADEATKLRSALQTWGLFLATNHGIDVSLMEDLMKASREFFNQPLQERQKYSNLREGTRFQLEGYGSDPVIAQDHILDWSDRLQLKVEPEDERNLAQWPKHPESFRDLLHEYATKTKTVMVKILRAMAKTLELDEEDFIDQIGGRPQAYARFNYYPPCPRPELVLGIKAHSDGTLLTVLLVDREVGGLQIQRENKWFNVPSIPHALVINLGDSLEIMSNGIFKSPVHRVVTNAEKERISLAMLYSVQRDNVLEPAPGLLDEKRPAKYRRITEAHFRAGIKEHFSKGMRMIETLKI
modifications: TDO variant sequence
[1]; [5]
  activity compared to the rice TDO protein: about 17%

B3: D08: Os.TDO variant D08, SEQ ID NO:18, 20 amino acid changes relative to Os.TDO (protein)
chain: MADESWRAPALVQELAAKGVEEPPSRYLLREQDRPDVKLVAAELPEPIPVVDLGRLDGAEEATKLRVALQNWGFFLLTNHGIEASLMDDVMNLSREFFNQPIERKQKFSNLIDGKHFQIEGYGTDRVVTQDQVLDWSDRLHLRVEPKEEQDLAFWPDHPESFRDVLHKYASGCKRIRDDIIQAMAKLLELDEDYFLDRFNEAPTFARFNYYPPCPRPDLVFGIRPHSDGGLLTILLVDKDVGGLQVQRDGKWSNVPATPHTLLINLGDTMEVMSNGIFKSPVHRVVTNAEKERISLAMLYSVNDEKDIEPAAGLLDENRPARYRKVSVEEFRAGIFGKFSRGERYIDSLRI
modifications: TDO variant sequence
[3]
  injury ratings after mesotrione application relative to Os.TDO control: possibly trending lower injury relative to the Os.TDO control
Transgenic cotton plants; Under 80° F.
  Crop Injury (%), 210 g/ha (2X) Mesotrione: 0%
  Crop Injury (%), 840 g/ha (8X) Mesotrione: 0%
Transgenic cotton plants; Under 100° F.
  Crop Injury (%), 210 g/ha (2X) Mesotrione: 0%
  Crop Injury (%), 840 g/ha (8X) Mesotrione: 0%
Transgenic cotton plants; cotton at the higher temperature
  injury rates relative to Os.TDO controls: trending even lower than the Os.TDO controls
[4]
  tolerance to mesotrione spray treatment: good tolerance

B4: Zm.TDO: TDO homolog from Zea mays, SEQ ID NO:4 (protein)
chain: MADESWRVPTPVQELAATLEEPPSRYVLQEKDRRGSPLVADDMPEPLPVINLSRLSEDATEAAKLESALQSWGLVLVTNHGIETSLMDGVMDASREFFRQPLEEKQKYSNLIDGKRFQVEGYGNDRVATERQILNWNDRLHLKVAPEDERDYTHWPKHPESFRDVLHEYALETKRVRDGIFRATAKILELDEDHFVRLISDRAAAFARFNYYPPCPRPDLVNGVQPHSDAGVLTILLVDKDVRGLQVQRDGVWYNVPPMPYTLLINLGDIMEIMSNGILKSPVHRVVTNAEKERISLAVFYGVGAENALEPAAGLLDEKRPARYRKISMTDFIAGIHGQFSRGTRFIESLKI
modifications: Zea mays
[1]; [5]
  activity lower than rice TDO: about 30%
[2]
  % Injury: 15%
